Earlier results, collected in US20060234934A1, “Composition and Method for Selective Cytostasis” (priority 2005, published 2006).

System: human embryonic palatal mesenchymal cells

B1: EGF: Epidermal Growth Factor (protein, UniProt P01133 23-1207, looked up)
Pro-epidermal growth factor: PQHWSCPEGTLAGNGNSTCVGPAPFLIFSHGNSIFRIDTEGTNYEQLVVDAGVSVIMDFHYNEKRIYWVDLERQLLQRVFLNGSRQERVCNIEKNVSGMAINWINEEVIWSNQQEGIITVTDMKGNNSHILLSALKYPANVAVDPVERFIFWSSEVAGSLYRADLDGVGVKALLETSEKITAVSLDVLDKRLFWIQYNREGSNSLICSCDYDGGSVHISKHPTQHNLFAMSLFGDRIFYSTWKMKTIWIANKHTGKDMVRINLHSSFVPLGELKVVHPLAQPKAEDDTWEPEQKLCKLRKGNCSSTVCGQDLQSHLCMCAEGYALSRDRKYCEDVNECAFWNHGCTLGCKNTPGSYYCTCPVGFVLLPDGKRCHQLVSCPRNVSECSHDCVLTSEGPLCFCPEGSVLERDGKTCSGCSSPDNGGCSQLCVPLSPVSWECDCFPGYDLQLDEKSCAASGPQPFLLFANSQDIRHMHFDGTDYGTLLSQQMGMVYALDHDPVENKIYFAHTALKWIERANMDGSQRERLIEEGVDVPEGLAVDWIGRRFYWTDRGKSLIGRSDLNGKRSKIITKENISQPRGIAVHPMAKRLFWTDTGINPRIESSSLQGLGRLVIASSDLIWPSGITIDFLTDKLYWCDAKQSVIEMANLDGSKRRRLTQNDVGHPFAVAVFEDYVWFSDWAMPSVMRVNKRTGKDRVRLQGSMLKPSSLVVVHPLAKPGADPCLYQNGGCEHICKKRLGTAWCSCREGFMKASDGKTCLALDGHQLLAGGEVDLKNQVTPLDILSKTRVSEDNITESQHMLVAEIMVSDQDDCAPVGCSMYARCISEGEDATCQCLKGFAGDGKLCSDIDECEMGVPVCPPASSKCINTEGGYVCRCSEGYQGDGIHCLDIDECQLGEHSCGENASCTNTEGGYTCMCAGRLSEPGLICPDSTPPPHLREDDHHYSVRNSDSECPLSHDGYCLHDGVCMYIEALDKYACNCVVGYIGERCQYRDLKWWELRHAGHGQQQKVIVVAVCVVVLVMLLLLSLWGAHYYRTQKLLSKNPKNPYEESSRDVRSRRPADTEDGMSSCPQPWFVVIKEHQDLKNGGQPVAGEDGQAADGSMQPTSWRQEPQLCGMGTEQGCWIPVSSDKGSCPQVMERSFHMPSYGTQTLEGGVEKPHSLLSANPLWQQRALDPPHQMELTQ
modifications: Pro-epidermal growth factor
In the case of B1, the “stimulation of incorporation of 3[H]-thymidine into newly synthesized DNA” value is given as “a little more than twofold”.
